Here are results for 1 substance from PMC5352466 (Bioconjugate chemistry, 2017).

The data set can be described thus: Pharmacokinetics study in mice after tail vein injection. It counts as in vivo. The following applies: fasted CD1 mice, i.v. tail vein, 16 Qg/kg of insulin, 3-60 min, ELISA, n = 5. Background: In an ELISA, binding on a coated surface is turned into a signal by an enzyme label.

On to insulin, for which the “plasma concentration of insulin after injection” value was “not detectable at any time point”.
